Tests used:
[1] = molecular target: T1, hemoglobin (Hb), human, cell-free (human, UniProt P69905 1-142; P68871 1-147); assay: SPR
[2] = molecular target: T1, hemoglobin (Hb), human, cell-free; assay: SPR; remark: listed apart in the source

T1 sequence (P69905 whole entry, chain 1 of 2): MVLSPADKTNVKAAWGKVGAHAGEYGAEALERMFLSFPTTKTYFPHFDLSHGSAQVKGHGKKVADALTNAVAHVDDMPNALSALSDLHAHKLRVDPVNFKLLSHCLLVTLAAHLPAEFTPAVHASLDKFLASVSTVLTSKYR
T1 sequence (P68871 whole entry, chain 2 of 2): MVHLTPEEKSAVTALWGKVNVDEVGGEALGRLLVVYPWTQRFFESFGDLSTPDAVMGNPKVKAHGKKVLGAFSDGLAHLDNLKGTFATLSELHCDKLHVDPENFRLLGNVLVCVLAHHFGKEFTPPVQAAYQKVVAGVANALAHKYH

B1: recombinant haptoglobin Hp1F, C1r-LP processed (natural protein)
chain 1: VDSGNDVTDIADDGCPKPPEIAHGYVEHSVRYQCKNYYKLRTEGDGVYTLNDKKQWINKAVGDKLPECEAVCGKPKNPANPVQ
chain 2: ILGGHLDAKGSFPWQAKMVSHHNLTTGATLINEQWLLTTAKNLFLNHSENATAKDIAPTLTLYVGKKQLVEIEKVVLHPNYSQVDIGLIKLKQKVSVNERVMPICLPSKDYAEVGRVGYVSGWGRNANFKFTDHLKYVMLPVADQDQCIRHYEGSTVPEKKTPKSPVGVQPILNEHTFCAGMSKYQEDTCYGDAGSAFAVHDLEEDTWYATGILSFDKSCAVAEYGVYVKVTSIQDWVQKTIAEN
modifications: Hp1F built from the first (F) repeat of Hp2FS (mature Asp52/Lys53 = precursor D70/K71); C1r-LP cleaves after R161 (Arg omitted from alpha chain per UniProt convention); alpha-beta and inter-alpha disulfides; N-glycosylated; C-terminal 8xHis tag omitted
koff [1]: < 5e-05 s⁻¹ | Kd [2]: < 0.042 nM
